Measurements from patent US20250277790A1 (Johns Hopkins, published 2025).

Molecular target: human EGFR tagged with the fluorescent protein mTurquoise at the C-terminus (wild-type), in plasma … (human, UniProt P00533 25-1210)
Experiment: cell-based or functional assay

B1: EGF ligand from mouse labeled with rhodamine at its N-terminus (rho-mEGF, Thermofisher, E3481) (ligand, UniProt P01132 977-1029, looked up)
chain: NSYPGCPSSYDGYCLNGGVCMHIESLDSYTCNCVIGYSGDRCQTRDLRWWELR
modifications: not fully specified; rhodamine (tetramethylrhodamine) at the N-terminus
Q: How did the “EC50 of Y1068 phosphorylation per EGFR molecule” value turn out when B1 was run?
A: 5.5 nM

Q: And the “EC50 of Y1173 phosphorylation per EGFR molecule” value?
A: 6.8 nM
